The nature of this series: protein stability index of a GFP-peptide fusion (yeast GPS) (PSI 1-4); higher = more stable; sorted into four equal gates, so the index is relative within each strain. The method in brief: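 Plasmids in a pooled yeast library fused tiled 17-residue yeast protein peptides downstream of GFP and also expressed Cherry. Mid-log cultures grown without leucine were sorted into four equal gates by GFP/Cherry fluorescence ratio. Each gate's plasmids were PCR-amplified and Illumina-sequenced, and reads were matched to strains by barcodes. The protein stability index is derived by multiplying each gate's read frequency by its gate number and summing the results.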

The text below walks through data of the supplement of paper PMC9732359.

± gives the uncertainty stated by the source.

For EVYGINEESTNERLEIN [SIR4], the protein stability index (doa10∆) is 3.29 ± 0.16, the protein stability index (pdr5∆) was determined as 3.25 ± 0.13, the protein stability index (san1∆) is 3.22 ± 0.16 and the protein stability index (ubr1∆) is 3.15 ± 0.14.
Taken in the same sequence, the figures for GSNQQSSTGGGLFGNKP [YGR119C/NUP57] were 3.36 ± 0.093, 3.28 ± 0.084, 3.23 ± 0.058 and 3.28 ± 0.042.
Regarding SRGGVTQVRVEFLEDTS [RPS28A], the protein stability index reads like this: (doa10∆) 3.41 ± 0.071; (pdr5∆) 3.15 ± 0.058; (san1∆) 3.16 ± 0.052; (ubr1∆) 3.22 ± 0.05.
As for HAERDLALAETLKLRAR [SRP68], the protein stability index reads like this: (doa10∆) 2.95 ± 0.15; (pdr5∆) 2.74 ± 0.27.
With DQNPIQVVVDAITNTGP [RPS5], the protein stability index by setting is: (doa10∆) 2.35 ± 0.053; (pdr5∆) 2.79 ± 0.041; (san1∆) 2.76 ± 0.061; (ubr1∆) 2.13 ± 0.041.
As for YIKNILEAPVKSIENPT [YLR335W/NUP2], the protein stability index stood at 2.38 ± 0.061 (doa10∆), 2.33 ± 0.063 (pdr5∆), 2.19 ± 0.084 (san1∆) and 2.13 ± 0.057 (ubr1∆).
Taken in the same sequence, the figures for KEPRLVIVTDPRSDAQA [RPS0A] were 2.56 ± 0.14, 3.06 ± 0.087, 2.94 ± 0.064 and 3.05 ± 0.1.
Taken in the same sequence, the figures for KENFILDSLMKTTRLLL [YJL039C/NUP192] were 1.96 ± 0.057, 1.64 ± 0.05, 1.42 ± 0.095 and 1.61 ± 0.05.
As to FEYLATVMYQRRSKMNP [PRE4], the protein stability index amounted to 2.11 ± 0.12 (doa10∆), 2.72 ± 0.21 (pdr5∆), 2.6 ± 0.15 (san1∆) and 2.57 ± 0.28 (ubr1∆).
In the same order, the values of LGSHSSSQKDGNDFKFN [REC8] are 3.25 ± 0.07, 3.24 ± 0.063, 2.91 ± 0.081 and 3.22 ± 0.057.
With NVPSTKFNAAPEENATE [SNF12], the protein stability index is 3.21 ± 0.067 (doa10∆), 3.35 ± 0.07 (pdr5∆), 3.17 ± 0.058 (san1∆) and 3.12 ± 0.055 (ubr1∆).
Taken in the same sequence, the figures for PSLNPIPHFIDNNSSLN [PRP8] were 2.3 ± 0.063, 2.52 ± 0.05, 2.78 ± 0.055 and 2.4 ± 0.045.
Taken in the same sequence, the figures for VNIPSFMVRLDSEKHID [RPS9A] were 2.62 ± 0.081, 2.64 ± 0.051, 2.48 ± 0.059 and 2.2 ± 0.052.
Consider ESIDVDMDAESNESQNG [SMC3], for which the protein stability index by setting is: (doa10∆) 3.21 ± 0.094; (pdr5∆) 2.91 ± 0.079; (san1∆) 2.65 ± 0.066; (ubr1∆) 3.27 ± 0.037.
Taken in the same sequence, the figures for KKAVVKGTNGKKALKVR [RPL25] were 2.84 ± 0.094, 2.24 ± 0.078, 1.91 ± 0.11 and 2.75 ± 0.063.
For LSEYLTKFQTTDRESYP [YCS4], the protein stability index by setting is: (pdr5∆) 3.28 ± 0.2; (ubr1∆) 2.94 ± 0.14.
For EEGINKFKKEKFDIIIV [SRP54], the protein stability index reads like this: (doa10∆) 2.58 ± 0.05; (pdr5∆) 2.61 ± 0.042; (san1∆) 2.92 ± 0.043; (ubr1∆) 2.69 ± 0.057.
TYDKETITDLIEQGIPK [SIR4] registered a protein stability index (doa10∆) of 3.3 ± 0.049, a protein stability index (pdr5∆) of 3.39 ± 0.051, a protein stability index (san1∆) of 3.35 ± 0.04 and a protein stability index (ubr1∆) of 3.41 ± 0.043.
Taken in the same sequence, the figures for LLAEYDNIYRNLQKIDK [MED4] were 2.4 ± 0.048, 2.69 ± 0.042, 2.61 ± 0.05 and 2.32 ± 0.028.
On to IAARRTGLLRGSQKTQD [RPL2A], for which the protein stability index is, setting by setting: (doa10∆) 2.83 ± 0.095; (pdr5∆) 2.73 ± 0.064; (san1∆) 2.66 ± 0.075; (ubr1∆) 2.68 ± 0.079.
Take YSIALSNVAAIFKGIGG [GAL11]: the protein stability index reads like this: (doa10∆) 1.52 ± 0.08; (pdr5∆) 1.55 ± 0.076; (san1∆) 1.38 ± 0.18; (ubr1∆) 1.48 ± 0.048.
In the same order, the values of DKINKYSLIRETNGYDP [SNF5] are 1.51 ± 0.086, 1.62 ± 0.12, 1.92 ± 0.2 and 1.23 ± 0.19.
Taken in the same sequence, the figures for CLQDALDAIDDFIQLKQ [SSN2] were 2.73 ± 0.081, 2.6 ± 0.056, 2.2 ± 0.063 and 2.92 ± 0.06.
In the same order, the values of SPSEFVDVAIPCNNRGK [RPS0A] are 1.74 ± 0.096, 1.97 ± 0.065, 1.61 ± 0.093 and 1.54 ± 0.096.
For LLTPKSGEPIIAATQDF [RPO31], the protein stability index is, setting by setting: (doa10∆) 2.92 ± 0.16; (pdr5∆) 2.57 ± 0.27.
Take EAVEIPVNSADGKEDVE [SME1]: the protein stability index reads like this: (doa10∆) 2.29 ± 0.061; (pdr5∆) 2.8 ± 0.056; (san1∆) 2.77 ± 0.04; (ubr1∆) 2.67 ± 0.04.
